Source: patent CN113512111A (BEIJING MABWORKS BIOTECH CO LTD, dated 2021)

Experiments:
FcγRIIIa(158V) = FcγRIIIa(158V) (UniProt P08637 17-208)
C1q蛋白 = C1q蛋白 (UniProt P02745 23-245; P02746 28-253; P02747 29-245)
[1] = molecular target: T1, 埃博拉病毒表面抗原GP蛋白 (soluble GP used as the analyte in BIAcore) (埃博拉病毒 (Ebola virus), UniProt Q05320 33-650)
T1 sequence: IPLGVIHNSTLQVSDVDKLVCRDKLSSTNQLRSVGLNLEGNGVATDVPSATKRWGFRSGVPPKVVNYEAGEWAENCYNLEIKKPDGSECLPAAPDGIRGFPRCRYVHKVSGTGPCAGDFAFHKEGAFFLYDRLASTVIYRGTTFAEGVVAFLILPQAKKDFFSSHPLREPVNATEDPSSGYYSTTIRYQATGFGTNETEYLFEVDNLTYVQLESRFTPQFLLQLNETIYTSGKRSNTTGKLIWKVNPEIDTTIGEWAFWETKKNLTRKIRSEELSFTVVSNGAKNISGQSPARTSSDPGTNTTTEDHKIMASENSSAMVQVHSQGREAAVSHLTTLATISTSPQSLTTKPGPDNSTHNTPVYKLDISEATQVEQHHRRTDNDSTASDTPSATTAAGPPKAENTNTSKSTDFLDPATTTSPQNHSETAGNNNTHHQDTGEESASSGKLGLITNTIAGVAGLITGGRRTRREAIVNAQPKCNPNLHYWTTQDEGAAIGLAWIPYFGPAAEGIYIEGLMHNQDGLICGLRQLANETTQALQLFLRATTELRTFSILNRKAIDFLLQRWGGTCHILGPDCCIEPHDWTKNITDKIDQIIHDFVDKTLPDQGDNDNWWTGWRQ

[2] = molecular target: T2, 埃博拉GP蛋白 on 埃博拉假病毒(扎伊尔型) (HIV-backbone luciferase pseudovirus) (埃博拉病毒(扎伊尔型) (Zaire ebolavirus), UniProt Q05320 33-676); assay: cell-based or functional assay
T2 sequence: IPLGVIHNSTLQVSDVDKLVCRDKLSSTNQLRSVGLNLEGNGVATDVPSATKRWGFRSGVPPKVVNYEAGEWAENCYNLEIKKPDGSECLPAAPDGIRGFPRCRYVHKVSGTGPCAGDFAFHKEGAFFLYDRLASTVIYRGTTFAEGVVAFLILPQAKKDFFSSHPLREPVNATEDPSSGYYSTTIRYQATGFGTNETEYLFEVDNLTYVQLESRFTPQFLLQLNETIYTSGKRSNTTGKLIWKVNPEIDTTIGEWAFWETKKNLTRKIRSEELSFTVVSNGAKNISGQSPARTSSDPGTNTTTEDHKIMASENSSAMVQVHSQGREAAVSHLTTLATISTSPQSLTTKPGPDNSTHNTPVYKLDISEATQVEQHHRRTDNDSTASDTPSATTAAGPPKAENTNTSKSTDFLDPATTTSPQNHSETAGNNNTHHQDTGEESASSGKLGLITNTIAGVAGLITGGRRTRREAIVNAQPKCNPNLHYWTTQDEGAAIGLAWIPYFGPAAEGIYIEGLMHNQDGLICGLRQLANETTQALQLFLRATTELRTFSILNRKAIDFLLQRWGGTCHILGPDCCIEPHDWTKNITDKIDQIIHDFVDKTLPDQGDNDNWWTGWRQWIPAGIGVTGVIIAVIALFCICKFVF

C1q蛋白, sequence (P02745 23-245 limits assumed, chain 1 of 3): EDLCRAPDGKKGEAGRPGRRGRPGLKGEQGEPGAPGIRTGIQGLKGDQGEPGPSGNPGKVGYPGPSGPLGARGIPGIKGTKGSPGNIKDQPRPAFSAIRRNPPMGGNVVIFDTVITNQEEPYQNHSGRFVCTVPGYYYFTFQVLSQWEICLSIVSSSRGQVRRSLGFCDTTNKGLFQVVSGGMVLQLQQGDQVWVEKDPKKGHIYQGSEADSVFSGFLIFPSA
C1q蛋白, sequence (P02746 28-253 limits assumed, chain 2 of 3): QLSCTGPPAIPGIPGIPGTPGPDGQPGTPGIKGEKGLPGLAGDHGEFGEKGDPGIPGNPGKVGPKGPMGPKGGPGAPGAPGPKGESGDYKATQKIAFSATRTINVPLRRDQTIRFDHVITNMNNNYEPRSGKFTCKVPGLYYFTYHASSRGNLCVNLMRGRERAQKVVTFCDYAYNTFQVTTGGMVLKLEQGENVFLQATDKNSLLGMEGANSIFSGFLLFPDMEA
C1q蛋白, sequence (P02747 29-245 limits assumed, chain 3 of 3): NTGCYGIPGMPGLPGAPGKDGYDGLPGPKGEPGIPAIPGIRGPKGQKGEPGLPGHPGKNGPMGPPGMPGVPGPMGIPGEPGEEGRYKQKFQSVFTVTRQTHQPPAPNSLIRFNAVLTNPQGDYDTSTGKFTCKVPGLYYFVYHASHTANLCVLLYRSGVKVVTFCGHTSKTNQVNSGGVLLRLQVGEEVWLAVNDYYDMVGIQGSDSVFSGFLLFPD
FcγRIIIa(158V), sequence (P08637 17-208 F176V limits assumed): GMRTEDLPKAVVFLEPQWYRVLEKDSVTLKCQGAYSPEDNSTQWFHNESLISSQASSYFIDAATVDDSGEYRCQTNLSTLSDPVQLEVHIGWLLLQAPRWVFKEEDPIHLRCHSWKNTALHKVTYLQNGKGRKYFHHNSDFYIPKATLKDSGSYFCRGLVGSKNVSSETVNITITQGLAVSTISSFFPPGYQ

B1: 抗体MIL77-1 (anti-Ebola virus glycoprotein monoclonal antibody, afucosylated, made in CHOK1-AF cells) (antibody)
heavy: not shown
light: DIQMTQSPASLSVSVGETVSITCRASENIYSSLAWYQQKQGKSPQLLVYSATILADGVPSRFSGSGSGTQYSLKINSLQSEDFGTYYCQHFWGTPYTFGGGTKLEIKRTVAAPSVFIFPPSDEQLKSGTASVVCLLNNFYPREAKVQWKVDNALQSGNSQESVTEQDSKDSTYSLSSTLTLSKADYEKHKVYACEVTHQGLSSPVTKSFNRGEC
EC50 (FcγRIIIa(158V)): 0.062 to 0.064 µg/mL | EC50 (C1q蛋白): 0.818 to 0.96 µg/mL | Kd [1]: 50.6 to 53.8 nM | 体外假病毒感染细胞中和活性 半数抑制浓度(IC50), HEK293细胞体系, batch M20141202 [2]: 4.59 µg/mL | 体外假病毒感染细胞中和活性 半数抑制浓度(IC50), Huh7细胞体系, luciferase reporter [2]: 0.799 µg/mL

B2: 抗体MIL77-2 (anti-Ebola virus glycoprotein monoclonal antibody, afucosylated, made in CHOK1-AF cells) (antibody)
heavy: not shown
light: DIQMTQSPASLSASVGETVTITCRASENIYSYLAWYQQKQGKSPQLLVYNAKTLIEGVPSRFSGSGSGTQFSLKINSLQPEDFGSYFCQHHFGTPFTFGSGTELEIKRTVAAPSVFIFPPSDEQLKSGTASVVCLLNNFYPREAKVQWKVDNALQSGNSQESVTEQDSKDSTYSLSSTLTLSKADYEKHKVYACEVTHQGLSSPVTKSFNRGEC
EC50 (FcγRIIIa(158V)): 0.054 to 0.073 µg/mL | EC50 (C1q蛋白): 0.772 to 0.968 µg/mL | Kd [1]: 31.9 to 36.2 nM | 体外假病毒感染细胞中和活性 半数抑制浓度(IC50), HEK293细胞体系, batch M20141202 [2]: 0.058 µg/mL | 体外假病毒感染细胞中和活性 半数抑制浓度(IC50), HEK293细胞体系, batch M20141203 [2]: 0.023 µg/mL | 体外假病毒感染细胞中和活性 半数抑制浓度(IC50), HEK293细胞体系, batch M20150101 [2]: 0.017 µg/mL | 体外假病毒感染细胞中和活性 半数抑制浓度(IC50), Huh7细胞体系, luciferase reporter [2]: 0.359 µg/mL
